This note sets out measurements from patent US20120100074A1 (Teva, published 2012).

The target in assay [1] is T1, LIGHT expressed on the cell surface (LIGHT transfected cells; activated T-cells) (UniProt O43557 1-240, limits assumed).
T1 construct: whole, on cells
Description: flow cytometry on LIGHT transfected cells against vector control cells. On the technique in general: In flow cytometry, cells or beads pass a laser one at a time.

In assay [2] the target is T2, LIGHT (TNFSF14), recombinant soluble protein (human, UniProt O43557 83-240, limits assumed).
T2 construct: The immunogen was the extracellular domain fragment (Leu Ile Glu to Phe Met Val of AF036581); also called TL5; LIGHT/TL5
T2 sequence (O43557 83-240 limits assumed): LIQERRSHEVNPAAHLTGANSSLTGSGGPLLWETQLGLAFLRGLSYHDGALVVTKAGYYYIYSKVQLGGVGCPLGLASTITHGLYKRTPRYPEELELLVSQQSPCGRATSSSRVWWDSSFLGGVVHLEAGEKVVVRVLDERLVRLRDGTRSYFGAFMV
Description: competition ELISA: inhibition of LIGHT-biotin binding to DcR3-Fc captured by Protein A. In general terms: In an ELISA, binding on a coated surface is turned into a signal by an enzyme label.

Assay [3] addresses T2, LIGHT (TNFSF14), recombinant soluble …. Nature of the assay: competition ELISA: inhibition of LIGHT-biotin binding to LTbR-Fc captured by Protein A.
For assay [4] the target is unchanged. Nature of the assay: BiaCore (SPR). (SPR reads the build-up and loss of mass on a sensor chip optically.)
For assay [5] the target is unchanged. Nature of the assay: direct binding ELISA on LIGHT.
For assay [6] the target is unchanged. Description: competition ELISA: inhibition of LIGHT-biotin binding to HVEM-Fc captured by Protein A.
For assay [7], the target named is T1, LIGHT expressed on the cell surface …. Nature of the assay: flow cytometry on PMA/ionomycin activated Th1, Th17 and Th2 cells, biotin labeled antibody, streptavidin-PE. How it is done: FIG. 10B illustrates binding of humanized 5E10 antibody to Th1, Th17 and Th2 activated T-cells compared to controls. Polarized T-cells were activated with PMA/Ionomycin for 24 hr. Biotin labeled LIGHT antibody or control antibody was incubated with cells for 40 minutes at room temperature. After washing twice with PBS, the antibody binding to LIGHT expressed on activated T-cells was determined by flow cytometry using strepavidin conjugated to PE. Dotted lines on figure indicates humanized LIGHT antibody binding. Solid fill indicates control antibody binding.
This example describes an assay protocol to determine LIGHT antibody binding to LIGHT expressed on surface of activated T-cells by Flow cytometry. Polarized Th1, Th2 and Th17 cells were activated with 50 ng/mL PMA and 0.5 μg/mL lonomycin overnight at 37° C. One million activated T-cells were transferred to 5 mL FACS tubes and centrifuged at 1200 rpm for 5 minutes. The cellet pellet was resuspended in FACS staining buffer and incubated with anti-LIGHT or control antibodies at room temperature for 40 minutes. After washing twice with 2 mL PBS, the cells were incubated with PE-conjugated secondary reagents for 1 hour. The cells were washed 3 times with 2 mL PBS and resuspended in 0.5 mL PBS and analyzed by flow cytometry.

The IC50 is the concentration that gives 50% inhibition. The term Kd denotes the equilibrium constant for the complex coming apart. The term EC50 denotes the concentration giving half of the maximal effect.

T1 sequence (O43557 whole entry): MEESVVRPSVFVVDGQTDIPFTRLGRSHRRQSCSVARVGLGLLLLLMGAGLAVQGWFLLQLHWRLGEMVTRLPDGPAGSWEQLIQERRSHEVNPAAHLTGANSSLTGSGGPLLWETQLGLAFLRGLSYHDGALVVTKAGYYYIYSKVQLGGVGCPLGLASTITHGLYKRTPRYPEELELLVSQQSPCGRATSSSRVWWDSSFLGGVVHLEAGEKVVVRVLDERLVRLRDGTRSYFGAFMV

B1: murine anti-LIGHT monoclonal antibody 10D11 (antibody, V domains shown)
VH: EIQLQQSGPDLVKPGASVKVSCKASGYSFTDYYIYWVRQSHGKSLEWIGYIDPYNGGTKYNQKFKDTASLTVDKSSSTAFMHLNSLTSEDSAVYYCARTSGSSWFPYWGQGTLVTVSA
VL: DIVLTQSPATLSVTPGDSVSLSCRASQSISNNLHWYQQKSHESPRLLIKYTYQSISGIPSRFSGSGSGTDFTLTINSVETEDFGMYFCQQSNRWPLTFGAGTKLELKR
notes: Mouse hybridoma monoclonal antibody; also called m10D11; mD10D11
With B1, in assay [1], the “MFC ratio (mean fluorescence on LIGHT transfected cells to vector control cells)” value was 13.1 ratio. Moreover, the half-inhibitory concentration (IC50) in assay [2] stood at 0.14 nM; in assay [3] it was 0.0012 nM; in assay [6], 0.08 nM. In assay [4], the Kd was 0.045 nM. Moreover, the EC50 in assay [5] was determined as 0.16 nM.

B2: humanized 5E10 antibody (antibody, V domains shown)
VH: QVQLVQSGAEVKKPGASVKVSCKASGYTFTSYYIHWVRQAPGQRLEWMGWIFPGSDITKYNEKFKGRVTITRDTSASTAYMELSSLRSEDTAVYYCAREDYGISTYSAMDFWGQGTLVTVSS
VL: DIQLTQSPSFLSASVGDRVTITCKASQDVGTAVAWYQQKPGKAPKLLIYWASTRHTGVPSRFSGSGSGTEFTLTISSLQPEDFATYYCQQYSSYPLTFGQGTKVEIKR
notes: also called h5E10
On to B2, for which the binding result in assay [7] is listed as “binds”.
